Test results: US9388387B2, “Differentiation of human embryonic stem cells” (Janssen Biotech, Inc., priority 2008, dated 2016)

Test system: cells of the human embryonic stem cell line H1 differentiated to stage 6
Experiment: Real-time PCR gene expression profile of stage 6 cultures +/- activin A, enriched using a 40 μm filter
Type: cell-based
Settings: 10 ng/ml activin A added at stage 6 for seven days, H1 cells passage 43, FIG. 4 panels a-f
Protocol: (1:30 dilution) coated dishes and exposed to RPMI medium supplemented with 2% BSA (Catalog#152401, MP Biomedical, Ohio), and 100 ng/ml activin A (R&D Systems, MN) plus 20 ng/ml WNT-3a (Catalog#1324-WN-002, R&D Systems, MN) plus 8 ng/ml of bFGF (Catalog#100-18B, PeproTech, NJ), for one day followed by treatment with RPMI media supplemented with 2% BSA and 100 ng/ml activin A plus 8 ng/ml of bFGF for an additional two days. Next the cultures were treated with DMEM/F12+2% BSA+50 ng/ml FGF7+0.25 μM Cyclopamine-KAAD (#239804, Calbiochem, CA) for two days, followed by four days incubation in DMEM/F12+1% B27 (Invitrogen, CA)+50 ng/ml FGF7+0.25 μM Cyclopamine-KAAD+2 μM Retinoic acid (RA) (Sigma, MO)+100 ng/ml of Noggin (R & D Systems, MN).
Cells were differentiated into pancreatic endocrine cells by incubating the cells in DMEM/F12+1% B27 (Invitrogen, CA)+100 ng/ml Noggin+1 μM DAPT (a gamma-secretase inhibitor) (Catalog#565784, Calbiochem, CA)+1 μM ALK5 inhibitor II (Catalog#616452, Calbiochem, Ca)+100 ng/ml of Netrin-4 (R&D Systems, MN) for three days followed by additional seven days incubation in DMEM/F12+1% B27 (Invitrogen, CA)+1 μM ALK5 inhibitor II (Calbiochem, Ca). […] At each stage cell number was calculated using a hemocytometer and RNA was collected for PCR analysis. […]

B1: activin A: a member of the TGF-β superfamily; TGF-β receptor agonist (R&D Systems, MN) (protein, UniProt P08476 311-426, looked up)
Inhibin beta A chain: GLECDGKVNICCKKQFFVSFKDIGWNDWIIAPSGYHANYCEGECPSHIAGTSGSSLSFHSTVINHYRMRGHSPFANLKSCCVPTKLRPMSMLYYDDGQNIIKKDIQNMIVEECGCS
expression of pancreatic endocrine markers (pdx-1, nkx6-1, Pax4, nkx2.2, insulin, glucagon): significantly boosted expression of all key pancreatic endocrine markers
